In publication PMC2721907 (Nature structural & molecular biology, 2009):
Square brackets hold non-standard residues; d marks the D form. Ends that are not written are not given here. F2Pmab = 2-amino-4,4-difluoro-3-methyl-4-phosphobutanoic acid (p-Thr mimetic); pT = C[C@@H](OP(=O)(O)O)[C@H](N)C(=O)O

Each molecule was assayed against Plk2 PBD (purified recombinant) (assay: ITC).
Chain of Plk2 PBD (purified recombinant) (Q9NYY3 whole entry): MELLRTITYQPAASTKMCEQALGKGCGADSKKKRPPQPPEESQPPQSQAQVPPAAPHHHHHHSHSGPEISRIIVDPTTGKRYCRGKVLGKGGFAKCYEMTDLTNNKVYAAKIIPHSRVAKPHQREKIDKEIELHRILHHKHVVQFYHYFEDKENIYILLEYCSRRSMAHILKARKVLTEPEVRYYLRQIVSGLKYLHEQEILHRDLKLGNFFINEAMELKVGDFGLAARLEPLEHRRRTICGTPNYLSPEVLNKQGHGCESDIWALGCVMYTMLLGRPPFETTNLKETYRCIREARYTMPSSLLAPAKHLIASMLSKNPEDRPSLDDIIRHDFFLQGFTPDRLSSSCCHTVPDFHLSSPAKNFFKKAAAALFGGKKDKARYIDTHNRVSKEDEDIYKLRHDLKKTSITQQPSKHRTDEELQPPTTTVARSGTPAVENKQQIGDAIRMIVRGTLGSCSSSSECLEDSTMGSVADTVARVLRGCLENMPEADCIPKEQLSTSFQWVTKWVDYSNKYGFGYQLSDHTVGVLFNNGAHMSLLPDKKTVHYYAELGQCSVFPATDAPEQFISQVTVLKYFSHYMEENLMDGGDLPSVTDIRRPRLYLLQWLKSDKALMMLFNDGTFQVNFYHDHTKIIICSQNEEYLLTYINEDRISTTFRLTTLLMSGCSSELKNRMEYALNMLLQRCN
In the case of “MQSpTPL, N-terminally acetylated (peptide)”, the calorimetric initial heat of interaction is reported as -1.68 kcal/mol.
For “PLQSpT, N-terminally acetylated (peptide)”, the calorimetric initial heat of interaction was -1.1 kcal/mol.

What follows are molecules tested against Plk1 PBD (purified recombinant) (human) (assay: ITC).
“MQSpTPL, N-terminally acetylated (peptide)” showed a dH of -10 kcal/mol.
In the case of “LHSpTA, N-terminally acetylated (peptide)”, the dH is reported as -9.9 kcal/mol.
In the case of Ac-PLHSpT (peptide), the Kd is reported as 445 nM.
Ac-HS[pT]A [HSpTA, N-terminally acetylated] gave a Kd of 19500 nM and a dH of -3.82 kcal/mol.
Ac-LHS[pT] [LHSpT, N-terminally acetylated] gave a Kd of 22100 nM and a dH of -6.29 kcal/mol.
In the case of Ac-LHS[pT]AI [LHSpTAI, N-terminally acetylated], the Kd is reported as 247 nM and the dH is reported as -11.3 kcal/mol.
With Ac-PLHS[pT]A [PLHSpTA, N-terminally acetylated] the Kd was 262 nM and the dH was -11.6 kcal/mol.

What follows are molecules tested against Plk1 (Homo sapiens, UniProt P53350) (assay: Peptide pull-down of Plk1 from HeLa lysates with bead-immobilized peptides).
Chain of Plk1 (P53350 367-603 limits assumed): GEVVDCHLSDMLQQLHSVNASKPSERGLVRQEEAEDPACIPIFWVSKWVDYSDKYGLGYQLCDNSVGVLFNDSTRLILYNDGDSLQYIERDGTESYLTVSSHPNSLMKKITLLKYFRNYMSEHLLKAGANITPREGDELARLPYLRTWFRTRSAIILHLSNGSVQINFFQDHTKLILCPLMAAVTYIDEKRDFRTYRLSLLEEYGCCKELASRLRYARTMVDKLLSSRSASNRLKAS
For PLHA-Pmab (PLHAT), the “Plk1 binding in peptide pull-down (in words)” value was “abolished the Plk1 binding”.
In the case of “PLHS-F2Pmab-A: 6-mer p-T78 mimetic peptide containing 2-amino-4,4-difluoro-3-methyl-4-phosphobutanoic acid (F2Pmab) (PLHS[F2Pmab]A-NH2)”, the “Plk1 binding in peptide pull-down (in words)” value is reported as “precipitated Plk1”.
